Target: T1, BRAF-HDAC Complex 80 (BHC80)-PHD finger, Q96BD5
T1 chain: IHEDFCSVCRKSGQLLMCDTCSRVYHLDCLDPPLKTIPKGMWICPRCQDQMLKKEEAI
Assay: ITC

- Kd: 19.6 µM
Binder: ARTKQTARKSTG (modifications not checked) [unmodified H3 peptide]

Source: paper PMC2922993
